We go through two substances from publication PMC4403447.

The target in assay [1] is Sti1 G193C–G309C, labelled with ATTO 532 and ATTO 647 (S. cerevisiae) (UniProt P15705).
For assay [2], the target named is Sti1 G193C–G309C N39A, labelled with ATTO 532 and ATTO 647 (S. cerevisiae) (UniProt P15705).
For assay [3], the target named is Sti1 G193C–G309C N435A, labelled with ATTO 532 and ATTO 647 (S. cerevisiae) (UniProt P15705).
Sti1 G193C–G309C N435A, labelled with ATTO 532 and ATTO 647 (S. cerevisiae), sequence (P15705 whole entry G193C/G309C/N435A): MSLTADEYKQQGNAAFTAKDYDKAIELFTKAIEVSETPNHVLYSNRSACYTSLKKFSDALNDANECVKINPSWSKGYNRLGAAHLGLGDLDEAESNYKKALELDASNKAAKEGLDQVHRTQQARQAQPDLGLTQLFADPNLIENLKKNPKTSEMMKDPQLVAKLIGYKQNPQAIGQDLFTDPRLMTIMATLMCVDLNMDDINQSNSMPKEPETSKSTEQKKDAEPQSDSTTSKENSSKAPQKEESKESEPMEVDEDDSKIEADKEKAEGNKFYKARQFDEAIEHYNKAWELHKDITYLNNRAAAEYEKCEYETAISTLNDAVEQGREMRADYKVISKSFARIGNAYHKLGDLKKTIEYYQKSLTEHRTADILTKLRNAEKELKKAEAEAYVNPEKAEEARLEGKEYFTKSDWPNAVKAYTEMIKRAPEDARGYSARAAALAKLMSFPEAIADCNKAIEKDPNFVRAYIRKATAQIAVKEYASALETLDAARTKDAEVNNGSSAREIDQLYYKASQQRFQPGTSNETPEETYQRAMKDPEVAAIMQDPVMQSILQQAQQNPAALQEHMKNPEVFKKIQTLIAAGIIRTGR

yHsp70 (Ssa1), P10591 1-642 (natural protein; ATTO 532 and ATTO 647 on the two cysteines (labelled stochastically)), sequence (P10591 whole entry): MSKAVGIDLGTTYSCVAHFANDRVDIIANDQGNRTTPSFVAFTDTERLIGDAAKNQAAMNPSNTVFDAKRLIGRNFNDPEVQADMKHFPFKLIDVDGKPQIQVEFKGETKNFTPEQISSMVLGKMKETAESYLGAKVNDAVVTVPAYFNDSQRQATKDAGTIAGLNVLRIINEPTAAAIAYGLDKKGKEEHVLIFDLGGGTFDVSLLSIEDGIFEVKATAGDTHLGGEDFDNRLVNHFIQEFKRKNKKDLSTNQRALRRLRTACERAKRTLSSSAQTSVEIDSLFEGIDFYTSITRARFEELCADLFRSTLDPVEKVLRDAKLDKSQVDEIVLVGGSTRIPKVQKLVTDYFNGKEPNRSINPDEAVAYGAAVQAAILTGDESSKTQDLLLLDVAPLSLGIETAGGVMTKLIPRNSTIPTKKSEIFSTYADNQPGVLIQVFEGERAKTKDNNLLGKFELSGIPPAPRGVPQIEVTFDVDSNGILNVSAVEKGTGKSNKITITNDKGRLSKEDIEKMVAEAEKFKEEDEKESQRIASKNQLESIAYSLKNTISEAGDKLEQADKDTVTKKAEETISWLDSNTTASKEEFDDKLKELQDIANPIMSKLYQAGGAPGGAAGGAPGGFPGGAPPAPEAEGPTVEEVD
Sti1 G193C–G309C N39A, labelled with ATTO 532 and ATTO 647 (S. cerevisiae), sequence (P15705 whole entry N39A/G193C/G309C): as the sequence (P15705 whole entry G193C/G309C/N435A) above, with N39A, A435N counted along it
Sti1 G193C–G309C, labelled with ATTO 532 and ATTO 647 (S. cerevisiae), sequence (P15705 whole entry G193C/G309C): as the sequence (P15705 whole entry G193C/G309C/N435A) above, with A435N counted along it

In the case of “yHsp70 (Ssa1), P10591 1-642 (natural protein; ATTO 532 and ATTO 647 on the two cysteines (labelled stochastically))”, the dynamic traces (%) in surface-based spFRET (TIRF) of Sti1 encapsulated in vesicles with 25 μM Hsp70; 17 without Hsp in assay [1] was 28%; in assay [3], 15%. For the same substance, the dynamic traces (%) in surface-based spFRET (TIRF) of Sti1 encapsulated in vesicles with 25 μM Hsp70; 13 without Hsp in assay [2] is 27%.

Take “yHsp90 (Hsp82), P02829 1-709 (natural protein; ATTO 532 and ATTO 647 on the two cysteines (labelled stochastically))”: the figures for the dynamic traces (%) in surface-based spFRET (TIRF) of Sti1 encapsulated in vesicles with 10 μM Hsp90; 17 without Hsp in assay [1] and in assay [3] were 31% and 26%, respectively. Moreover, the dynamic traces (%) in surface-based spFRET (TIRF) of Sti1 encapsulated in vesicles with 10 μM Hsp90; 13 without Hsp in assay [2] is 27%.
